PMC6690855

Molecular target: Caut-bCAstrepC (C-terminal STREPII-tagged β-class carbonic anhydrase of Clostridium autoethanogenum) (Clostridium autoethanogenum)
Assay: AUC; sedimentation velocity, 50,000 rpm, 2-fold protein dilution series starting at 0.7 mg/ml, absorbance at 280 nm and interference optics; SEDFIT c(s) and non-interacting discrete species (NIDS) models

“Caut-bCAstrepC (C-terminal STREPII-tagged β-class carbonic anhydrase of Clostridium autoethanogenum) (enzyme)” was tested, and the stoichiometry N was 2.
